Assay type in all cases: physicochemical
Data set [1] in a line: NGAL quantity in eluates by BCA assay. Conditions: paper card stored at 40° C. for 1 week; % of spiked amount.
Data set [2] in a line: Recovery/elution of NGAL from ZIF-8 crystals and paper substrates (ELISA). To be noted: dried on paper, recovered immediately after drying; spiked NGAL amount = 100%. An excerpt: Preliminary experiments for investigating optimal buffer to dissolve NGAL embedded ZIF-8 crystals. To completely dissolve the crystals, the final pH of the system needs to be at or below 6.0 to ensure the complete release of NGAL from ZIF-8 encapsulation. For example, in the #4 composition (0.1 M phosphate buffer at pH 6.0), the crystals cannot be completely dissolved and this leads to incomplete recovery 60%, FIG. 8). Although the initial pH of the buffer is 6.0, the basic nature of ZIF-8 precursor residue in the system increases the pH of the buffer to 6.2, leading to incomplete release and recovery.
Left bar: Recovery percentage of ZIF-8 encapsulated NGAL dried on paper using the optimized elution buffer (#9 composition, 0.2 M PBS at pH=5.6 with 2 mM EDTA and 0.1% Tween 20). Middle bar: Recovery percentage of ZIF-8 encapsulated NGAL dried on paper using the #4 composition elution buffer (0.1 M PBS at pH=6 and 0.1% Tween 20). Right bar: Recovery percentage of NGAL alone dried on paper using the conventional elution buffer recipe (PBS at pH=7.4 with 0.1% Tween 20). The samples were recovered immediately after drying. 1 ml elution buffer was used to elute each paper strip. The spiked NGAL amount was set as the reference (100% recovery).
Protein recovery. […]
For orientation: In an ELISA, binding on a coated surface is turned into a signal by an enzyme label.

A short description of data set [3]: Preservation of NGAL spiked in artificial urine dried on paper (ELISA). How it is done:
The efficacy was evaluated of ZIF-8 encapsulation in preserving NGAL upon exposure to harsh conditions (such as elevated temperatures) that would normally lead to protein denaturation and loss of biospecimen integrity. NGAL-spiked artificial urine dried on paper substrates, both with and without ZIF-8 encapsulation, was stored at 25, 40, or 60° C. for 1 week. Before analysis, the optimized elution buffer (0.2 M phosphate buffer at pH 5.6+Tween 20+EDTA, see Table 1 and FIGS. 8 and 9 for details) was used to elute NGAL from the paper substrates.
The slightly acidic environment (at or below pH 6) was employed to dissociate ZIF-8 crystals and release encapsulated NGAL via breaking coordination between the zinc ions and imidazolate. ZIF-8 encapsulated NGAL dried on the paper was almost fully eluted (>95%) whereas NGAL alone dried on the paper was only partially eluted (˜75%) (FIG. 9). It is important to note that ZIF-8 encapsulation prevented irreversible adsorption of proteins on the cellulose fibers by creating a crystal interface between the protein and paper substrate. […] NGAL concentration was tested by ELISA when NGAL was spiked in four different media. The same concentration of NGAL in phosphate-buffered saline (PBS) at pH 7.4 was set as the reference (100%). […] After storage and elution, the concentration of NGAL in the eluate was quantified using the NGAL sandwich ELISA. The preservation efficacy (preservation %) was calculated by comparing the NGAL amount in the eluate to the spiked NGAL amount in the artificial urine. […] NGAL added on a paper card was stored at 25, 40 or 60° C. for one week. […] The eluates were obtained by eluting paper cards dried with NGAL-spiked artificial urine with or without MOF encapsulation after storage at 40° C. for 1 week.
The preservation efficacy critically depended on the concentrations of 2-methylimidazole and zinc acetate (FIG. 14). […] The maximal preservation percentage was obtained using 160 mM of 2-methylimidazole and 40 mM of zinc acetate. […] A low preservation was noted upon using 40 mM 2-methylimidazole with 10 mM zinc acetate, which is attributed to incomplete encapsulation of NGAL under this condition (˜70% encapsulation of NGAL using 40 mM 2-methylimidazole with 10 mM zinc acetate, FIG. 7). Subsequently, using the optimal ZIF-8 precursor concentration (160 mM 2-methylimidazole and 40 mM zinc acetate), the storage time was extended under different temperatures up to 4 weeks (FIG. 11B). […] Different dried paper strips were sampled at selected time points (2, 3 or 4 weeks) to monitor possible changes in NGAL preservation. With ZIF-8 encapsulation, over 70% of NGAL on paper was preserved up to 4 weeks (the maximum time tested) at all three temperatures (25, 40 and 60° C.), as opposed to 20% preservation on samples without ZIF-8 encapsulation. […] Remarkably, 70% of NGAL on paper could be preserved within 4 weeks at 60° C., which represented an extremely harsh storage condition (a surrogate for long-term storage stability at room temperature).
Sample preparation. NGAL-spiked artificial urine (50 μg/ml of NGAL, 25 μl) or patient urine (25 μl) was first mixed with 2-methylimidazole aqueous solution (12.5 μl) and then zinc acetate dihydrate aqueous solution (12.5 μl). The final concentrations of 2-methylimidazole after mixing were 320 mM, 160 mM, 80 mM and 40 mM. The final concentrations of zinc acetate dihydrate after mixing were 80 mM, 40 mM, 20 mM and 10 mM. […]

B1: neutrophil gelatinase-associated lipocalin (protein, UniProt P80188 21-198, looked up)
Neutrophil …: QDSTSDLIPAPPLSKVPLQQNFQDNQFQGKWYVVGLAGNAILREDKDPQKMYATIYELKEDKSYNVTSVLFRKKKCDYWIRTFVPGCQPGEFTLGNIKSYPGLTSYLVRVVSTNYNQHAMVFFKKVSQNREYFKITLYGRTKELTSELKENFIRFSKSLGLPENHIVFPVPIDQCIDG
notes: urinary biomarker for acute kidney injury; human recombinant
Consider B1, for which, in data set [1], the “proteins eluted as measured by BCA assay” value came out at 70%. Moreover, the “elution from paper substrate” value in data set [2] is given as ~75%. The NGAL preservation result was “less than 30%” in data set [3] (paper card, 25° C., 1 week); “less than 30%” in data set [3] (paper card, 40° C., 1 week); 20% in data set [3] (paper, 25° C., up to 4 weeks, 160 mM 2-methylimidazole and 40 mM zinc acetate); 20% in data set [3] (paper, 40° C., up to 4 weeks, 160 mM 2-methylimidazole and 40 mM zinc acetate); 20% in data set [3] (paper, 60° C., up to 4 weeks, 160 mM 2-methylimidazole and 40 mM zinc acetate).

For the origin of these results see US11856945B2, “Methods and systems for preparing and preserving a biological sample” (Washington University, priority 2017, dated 2024).
